According to patent US20210388087A1 (Chugai, published 2021):

Molecular target: T1, Human CD3eg linker (human)
T1 construct: single-chain construct; also called recombinant human CD3
T1 chain: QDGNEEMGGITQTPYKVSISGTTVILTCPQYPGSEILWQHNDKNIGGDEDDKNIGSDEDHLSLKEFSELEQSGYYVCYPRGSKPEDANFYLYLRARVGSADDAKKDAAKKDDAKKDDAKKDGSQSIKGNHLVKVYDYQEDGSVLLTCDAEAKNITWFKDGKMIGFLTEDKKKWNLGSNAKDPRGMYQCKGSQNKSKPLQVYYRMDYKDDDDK
Test: SPR, vs unmutated H183/L072

| Binder | fold change of affinity |
| --- | --- |
| dBBDu183H P61V/dBBDu072L (antibody, name in Kabat numbering, V domains shown) VH: QVQLVESGGGLVQPGRSLRLSCAASGFTFSNAWMHWVRQAPGKGLEWVAQIKDKGNAYAAYYAVSVKGRFTISRDDSKNSIYLQMNSLKTEDTAVYYCHYVHYASASTVLPAFGVDAWGQGTTVTVSS VL: DIVMTQSPLSLPVTPGEPASISCQASQELVHMNRNTYLHWYQQKPGQAPRLLIYKVSNRFPGVPDRFSGSGSGTDFTLKISRVEAEDVGVYYCAQGTSVPFTFGQGTKLEIK | 1.8 fold |
| dBBDu183H A98F/dBBDu072L (antibody, name in Kabat numbering, V domains shown) VH: QVQLVESGGGLVQPGRSLRLSCAASGFTFSNAWMHWVRQAPGKGLEWVAQIKDKGNAYAAYYAPSVKGRFTISRDDSKNSIYLQMNSLKTEDTAVYYCHYVHYFSASTVLPAFGVDAWGQGTTVTVSS VL: DIVMTQSPLSLPVTPGEPASISCQASQELVHMNRNTYLHWYQQKPGQAPRLLIYKVSNRFPGVPDRFSGSGSGTDFTLKISRVEAEDVGVYYCAQGTSVPFTFGQGTKLEIK | 12.1 fold |
| dBBDu183H A98E/dBBDu072L (antibody, name in Kabat numbering, V domains shown) VH: QVQLVESGGGLVQPGRSLRLSCAASGFTFSNAWMHWVRQAPGKGLEWVAQIKDKGNAYAAYYAPSVKGRFTISRDDSKNSIYLQMNSLKTEDTAVYYCHYVHYESASTVLPAFGVDAWGQGTTVTVSS VL: DIVMTQSPLSLPVTPGEPASISCQASQELVHMNRNTYLHWYQQKPGQAPRLLIYKVSNRFPGVPDRFSGSGSGTDFTLKISRVEAEDVGVYYCAQGTSVPFTFGQGTKLEIK | 0.3 fold |
| dBBDu183H A98D/dBBDu072L (antibody, name in Kabat numbering, V domains shown) VH: QVQLVESGGGLVQPGRSLRLSCAASGFTFSNAWMHWVRQAPGKGLEWVAQIKDKGNAYAAYYAPSVKGRFTISRDDSKNSIYLQMNSLKTEDTAVYYCHYVHYDSASTVLPAFGVDAWGQGTTVTVSS VL: DIVMTQSPLSLPVTPGEPASISCQASQELVHMNRNTYLHWYQQKPGQAPRLLIYKVSNRFPGVPDRFSGSGSGTDFTLKISRVEAEDVGVYYCAQGTSVPFTFGQGTKLEIK | 0.4 fold |
| dBBDu183H A98G/dBBDu072L (antibody, name in Kabat numbering, V domains shown) VH: QVQLVESGGGLVQPGRSLRLSCAASGFTFSNAWMHWVRQAPGKGLEWVAQIKDKGNAYAAYYAPSVKGRFTISRDDSKNSIYLQMNSLKTEDTAVYYCHYVHYGSASTVLPAFGVDAWGQGTTVTVSS VL: DIVMTQSPLSLPVTPGEPASISCQASQELVHMNRNTYLHWYQQKPGQAPRLLIYKVSNRFPGVPDRFSGSGSGTDFTLKISRVEAEDVGVYYCAQGTSVPFTFGQGTKLEIK | 1.4 fold |
| dBBDu183H A98K/dBBDu072L (antibody, name in Kabat numbering, V domains shown) VH: QVQLVESGGGLVQPGRSLRLSCAASGFTFSNAWMHWVRQAPGKGLEWVAQIKDKGNAYAAYYAPSVKGRFTISRDDSKNSIYLQMNSLKTEDTAVYYCHYVHYKSASTVLPAFGVDAWGQGTTVTVSS VL: DIVMTQSPLSLPVTPGEPASISCQASQELVHMNRNTYLHWYQQKPGQAPRLLIYKVSNRFPGVPDRFSGSGSGTDFTLKISRVEAEDVGVYYCAQGTSVPFTFGQGTKLEIK | 4.6 fold |
| dBBDu183H A98H/dBBDu072L (antibody, name in Kabat numbering, V domains shown) VH: QVQLVESGGGLVQPGRSLRLSCAASGFTFSNAWMHWVRQAPGKGLEWVAQIKDKGNAYAAYYAPSVKGRFTISRDDSKNSIYLQMNSLKTEDTAVYYCHYVHYHSASTVLPAFGVDAWGQGTTVTVSS VL: DIVMTQSPLSLPVTPGEPASISCQASQELVHMNRNTYLHWYQQKPGQAPRLLIYKVSNRFPGVPDRFSGSGSGTDFTLKISRVEAEDVGVYYCAQGTSVPFTFGQGTKLEIK | 5.9 fold |

Molecular target: T2, CD3 epsilon homodimer protein (UniProt P07766 23-126)
T2 construct: also called CD3 (CD3 epsilon)
Test: SPR, antibody over immobilised CD3e homodimer;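 also: SPR at 25 °C with CD3 epsilon homodimer amine-coupled to a CM4 sensor chip and antibody flowed over as analyte in HBS-EP+ running buffer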

T2 sequence (P07766 23-126): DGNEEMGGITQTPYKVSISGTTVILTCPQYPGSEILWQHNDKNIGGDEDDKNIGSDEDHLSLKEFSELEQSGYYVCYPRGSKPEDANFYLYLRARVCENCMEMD

| Binder | KD ratio to GLS3000 |
| --- | --- |
| CE115HA000/GLS3000 Y32P (antibody, IgG1, name in Kabat numbering, V domains shown, one-arm IgG1) VH: QVQLVESGGGVVQPGRSLRLSCAASGFTFSNAWMHWVRQAPGKGLEWVAQIKAKSNNYATYYAESVKGRFTISRDDSKNSLYLQMNSLKTEDTAVYYCRYVHYGAYYGVDAWGQGTTVTVSS VL: DIVMTQSPLSLPVTPGEPASISCRSSQSLVHSNRNTPLHWYQQKPGQAPRLLIYKVSNRFSGVPDRFSGSGSGTDFTLKISRVEAEDVGVYYCGQGTQVPYTFGQGTKLEIK | 62 |
| CE115HA000/GLS3000 Y32A (antibody, IgG1, name in Kabat numbering, V domains shown, one-arm IgG1) VH: QVQLVESGGGVVQPGRSLRLSCAASGFTFSNAWMHWVRQAPGKGLEWVAQIKAKSNNYATYYAESVKGRFTISRDDSKNSLYLQMNSLKTEDTAVYYCRYVHYGAYYGVDAWGQGTTVTVSS VL: DIVMTQSPLSLPVTPGEPASISCRSSQSLVHSNRNTALHWYQQKPGQAPRLLIYKVSNRFSGVPDRFSGSGSGTDFTLKISRVEAEDVGVYYCGQGTQVPYTFGQGTKLEIK | 66.8 |
| CE115HA000/GLS3000 Y96D (antibody, IgG1, name in Kabat numbering, V domains shown, one-arm IgG1) VH: QVQLVESGGGVVQPGRSLRLSCAASGFTFSNAWMHWVRQAPGKGLEWVAQIKAKSNNYATYYAESVKGRFTISRDDSKNSLYLQMNSLKTEDTAVYYCRYVHYGAYYGVDAWGQGTTVTVSS VL: DIVMTQSPLSLPVTPGEPASISCRSSQSLVHSNRNTYLHWYQQKPGQAPRLLIYKVSNRFSGVPDRFSGSGSGTDFTLKISRVEAEDVGVYYCGQGTQVPDTFGQGTKLEIK | 40.9 |
| CE115HA000/GLS3000 Y32F (antibody, IgG1, name in Kabat numbering, V domains shown, one-arm IgG1) VH: QVQLVESGGGVVQPGRSLRLSCAASGFTFSNAWMHWVRQAPGKGLEWVAQIKAKSNNYATYYAESVKGRFTISRDDSKNSLYLQMNSLKTEDTAVYYCRYVHYGAYYGVDAWGQGTTVTVSS VL: DIVMTQSPLSLPVTPGEPASISCRSSQSLVHSNRNTFLHWYQQKPGQAPRLLIYKVSNRFSGVPDRFSGSGSGTDFTLKISRVEAEDVGVYYCGQGTQVPYTFGQGTKLEIK | 4.51 |
| CE115HA000/GLS3000 Y96F (antibody, IgG1, name in Kabat numbering, V domains shown, one-arm IgG1) VH: QVQLVESGGGVVQPGRSLRLSCAASGFTFSNAWMHWVRQAPGKGLEWVAQIKAKSNNYATYYAESVKGRFTISRDDSKNSLYLQMNSLKTEDTAVYYCRYVHYGAYYGVDAWGQGTTVTVSS VL: DIVMTQSPLSLPVTPGEPASISCRSSQSLVHSNRNTYLHWYQQKPGQAPRLLIYKVSNRFSGVPDRFSGSGSGTDFTLKISRVEAEDVGVYYCGQGTQVPFTFGQGTKLEIK | 0.86 |
| CE115HA000/GLS3000 Y96H (antibody, IgG1, name in Kabat numbering, V domains shown, one-arm IgG1) VH: QVQLVESGGGVVQPGRSLRLSCAASGFTFSNAWMHWVRQAPGKGLEWVAQIKAKSNNYATYYAESVKGRFTISRDDSKNSLYLQMNSLKTEDTAVYYCRYVHYGAYYGVDAWGQGTTVTVSS VL: DIVMTQSPLSLPVTPGEPASISCRSSQSLVHSNRNTYLHWYQQKPGQAPRLLIYKVSNRFSGVPDRFSGSGSGTDFTLKISRVEAEDVGVYYCGQGTQVPHTFGQGTKLEIK | 80.3 |
| CE115HA000/GLS3000 V94Y (antibody, IgG1, name in Kabat numbering, V domains shown, one-arm IgG1) VH: QVQLVESGGGVVQPGRSLRLSCAASGFTFSNAWMHWVRQAPGKGLEWVAQIKAKSNNYATYYAESVKGRFTISRDDSKNSLYLQMNSLKTEDTAVYYCRYVHYGAYYGVDAWGQGTTVTVSS VL: DIVMTQSPLSLPVTPGEPASISCRSSQSLVHSNRNTYLHWYQQKPGQAPRLLIYKVSNRFSGVPDRFSGSGSGTDFTLKISRVEAEDVGVYYCGQGTQYPYTFGQGTKLEIK | 2.45 |
| CE115HA000/GLS3000 Y96L (antibody, IgG1, name in Kabat numbering, V domains shown, one-arm IgG1) VH: QVQLVESGGGVVQPGRSLRLSCAASGFTFSNAWMHWVRQAPGKGLEWVAQIKAKSNNYATYYAESVKGRFTISRDDSKNSLYLQMNSLKTEDTAVYYCRYVHYGAYYGVDAWGQGTTVTVSS VL: DIVMTQSPLSLPVTPGEPASISCRSSQSLVHSNRNTYLHWYQQKPGQAPRLLIYKVSNRFSGVPDRFSGSGSGTDFTLKISRVEAEDVGVYYCGQGTQVPLTFGQGTKLEIK | 1.84 |
| CE115HA000/GLS3000 V94W (antibody, IgG1, name in Kabat numbering, V domains shown, one-arm IgG1) VH: QVQLVESGGGVVQPGRSLRLSCAASGFTFSNAWMHWVRQAPGKGLEWVAQIKAKSNNYATYYAESVKGRFTISRDDSKNSLYLQMNSLKTEDTAVYYCRYVHYGAYYGVDAWGQGTTVTVSS VL: DIVMTQSPLSLPVTPGEPASISCRSSQSLVHSNRNTYLHWYQQKPGQAPRLLIYKVSNRFSGVPDRFSGSGSGTDFTLKISRVEAEDVGVYYCGQGTQWPYTFGQGTKLEIK | 1.81 |
| CE115HA000/GLS3000 Y96E (antibody, IgG1, name in Kabat numbering, V domains shown, one-arm IgG1) VH: QVQLVESGGGVVQPGRSLRLSCAASGFTFSNAWMHWVRQAPGKGLEWVAQIKAKSNNYATYYAESVKGRFTISRDDSKNSLYLQMNSLKTEDTAVYYCRYVHYGAYYGVDAWGQGTTVTVSS VL: DIVMTQSPLSLPVTPGEPASISCRSSQSLVHSNRNTYLHWYQQKPGQAPRLLIYKVSNRFSGVPDRFSGSGSGTDFTLKISRVEAEDVGVYYCGQGTQVPETFGQGTKLEIK | 46.8 |
| CE115HA000/GLS3000 V94S (antibody, IgG1, name in Kabat numbering, V domains shown, one-arm IgG1) VH: QVQLVESGGGVVQPGRSLRLSCAASGFTFSNAWMHWVRQAPGKGLEWVAQIKAKSNNYATYYAESVKGRFTISRDDSKNSLYLQMNSLKTEDTAVYYCRYVHYGAYYGVDAWGQGTTVTVSS VL: DIVMTQSPLSLPVTPGEPASISCRSSQSLVHSNRNTYLHWYQQKPGQAPRLLIYKVSNRFSGVPDRFSGSGSGTDFTLKISRVEAEDVGVYYCGQGTQSPYTFGQGTKLEIK | 0.81 |
| CE115HA000/GLS3000 V94T (antibody, IgG1, name in Kabat numbering, V domains shown, one-arm IgG1) VH: QVQLVESGGGVVQPGRSLRLSCAASGFTFSNAWMHWVRQAPGKGLEWVAQIKAKSNNYATYYAESVKGRFTISRDDSKNSLYLQMNSLKTEDTAVYYCRYVHYGAYYGVDAWGQGTTVTVSS VL: DIVMTQSPLSLPVTPGEPASISCRSSQSLVHSNRNTYLHWYQQKPGQAPRLLIYKVSNRFSGVPDRFSGSGSGTDFTLKISRVEAEDVGVYYCGQGTQTPYTFGQGTKLEIK | 1.06 |
| CE115HA000/GLS3000 Y32D (antibody, IgG1, name in Kabat numbering, V domains shown, one-arm IgG1) VH: QVQLVESGGGVVQPGRSLRLSCAASGFTFSNAWMHWVRQAPGKGLEWVAQIKAKSNNYATYYAESVKGRFTISRDDSKNSLYLQMNSLKTEDTAVYYCRYVHYGAYYGVDAWGQGTTVTVSS VL: DIVMTQSPLSLPVTPGEPASISCRSSQSLVHSNRNTDLHWYQQKPGQAPRLLIYKVSNRFSGVPDRFSGSGSGTDFTLKISRVEAEDVGVYYCGQGTQVPYTFGQGTKLEIK | 25.9 |
